# According to US20240409647A1, “BISPECIFIC BINDING PROTEINS AGAINST ALARMINS AND USES THEREOF” (SINOMAB BIOSCIENCE LIMITED, priority 2022, published 2024):
# Where “and” joins values, the source holds several entries; their conditions need not be identical. Equal values may be shown once.
# Columns and labels:
# [1] = biological target: T1, rhesus monkey IL17RB expressed on HEK293 cells (Macaca mulatta, UniProt H9FWT9); assay: Flow cytometry, SM17 binding to HEK293 transfected with rhesus monkey IL-17RB; settings: SM17 1 μg/ml
# T1 construct: transfected either with full-length human or rhesus monkey IL-17RB (SinoBiological, Beijing, China); host or cells: HEK293
# T1 sequence (H9FWT9 18-502): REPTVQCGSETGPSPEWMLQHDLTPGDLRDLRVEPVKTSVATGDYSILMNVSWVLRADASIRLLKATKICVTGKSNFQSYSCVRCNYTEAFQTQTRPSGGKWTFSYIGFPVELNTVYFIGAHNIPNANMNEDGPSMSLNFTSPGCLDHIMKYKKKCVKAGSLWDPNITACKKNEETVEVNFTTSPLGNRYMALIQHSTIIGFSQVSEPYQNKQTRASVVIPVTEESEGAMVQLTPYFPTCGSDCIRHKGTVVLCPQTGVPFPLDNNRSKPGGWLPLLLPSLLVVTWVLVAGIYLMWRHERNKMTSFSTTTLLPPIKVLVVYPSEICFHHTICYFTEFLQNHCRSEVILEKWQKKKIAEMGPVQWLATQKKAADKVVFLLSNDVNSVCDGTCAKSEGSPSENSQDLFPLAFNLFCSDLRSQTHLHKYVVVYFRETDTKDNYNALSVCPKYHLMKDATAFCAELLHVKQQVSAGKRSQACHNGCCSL
# Experimental: HEK293 cells (ATCC, Manassas, VA) transfected either with full-length human or rhesus monkey IL-17RB (SinoBiological, Beijing, China) were examined for binding to SM17 following standard protocol for flow cytometry. Wild-type HEK293 stained with IgG4 isotype control (Sino Biological) was used as the negative control and for gating purpose. Briefly, HEK293 cells at a density of 3×10^5 cells were seeded into each well of a 6-well plate. On the next day, human or rhesus Il-17RB full length cDNA were first cloned into pCMV3-untagged expression plasmid through standard molecular cloning technique, and then expression plasmids for human or rhesus IL-17RB were transfected into HEK293 cells by lipofection (Lipofectamine 3000 reagent; Thermo Fisher Scientific). Transfected cells were trypsinized, harvested, and fixed with 4% paraformaldehyde (5 minutes). SM17, or human IgG4 control at 1 μg/ml in washing buffer (3% BSA in PBS) were added to the resuspend cells for incubation at RT for 30 min before Alexa Fluor® 647-conjugated goat anti-human IgG specific antibody (1:2000 dilution in washing buffer) (Jackson ImmunoResearch) was added for flow cytometry analysis using the BD FACSVerse cell analyzer (Becton Dickenson, Franklin Lakes, NJ).
# murine IL17RB = biological target: T2, murine IL17RB (Mus musculus, UniProt Q9JIP3); assay: ELISA, SM17 binding to coated IL-17RB protein (murine); settings: two wells
# T2 construct: purchased R&D systems
# T2 sequence (Q9JIP3 18-499): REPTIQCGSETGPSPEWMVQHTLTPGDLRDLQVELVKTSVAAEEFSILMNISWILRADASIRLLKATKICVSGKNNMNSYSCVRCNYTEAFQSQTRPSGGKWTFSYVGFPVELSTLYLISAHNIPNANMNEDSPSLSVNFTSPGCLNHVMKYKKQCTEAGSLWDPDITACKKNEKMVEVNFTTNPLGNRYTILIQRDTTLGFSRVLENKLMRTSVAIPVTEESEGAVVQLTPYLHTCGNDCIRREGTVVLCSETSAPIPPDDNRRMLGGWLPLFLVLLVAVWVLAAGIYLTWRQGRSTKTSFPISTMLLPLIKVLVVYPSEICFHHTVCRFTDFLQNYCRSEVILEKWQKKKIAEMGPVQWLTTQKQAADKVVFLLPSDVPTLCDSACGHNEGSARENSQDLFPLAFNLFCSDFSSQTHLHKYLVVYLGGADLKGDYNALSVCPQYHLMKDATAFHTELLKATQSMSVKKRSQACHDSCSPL
# Experimental: A standard enzyme-linked immunosorbent assay (ELISA) method was used to determine the species specificity of SM17 against IL-17RB proteins. Briefly, IL-17RB proteins from human, mouse, cynomolgus or rhesus monkey (R&D systems, Minneapolis, MN) were diluted to 2.5 μg/ml in PBS and 50 μl of IL-17RB proteins were added to each well of ELISA strip. The strips were sealed with parafilm and incubated at 4° C. overnight for coating.
# On the next day, strips were washed thrice with washing buffer (0.05% Tween 20 in PBS) and blocked with 100 μl per well with blocking buffer (3% BSA in PBS) for 2 hours RT before serially diluted SM17 (at a final concentration of 10, 2, 0.4, 0.08, 0.016, 0.0032, and 0.00064 μg/ml, respectively) was added.
# [2] = test system: Th2 cell population in human PBMC; assay: Th2 cell population in human PBMC culture (flow cytometry); assay type: cell-based; set-up: key: −: no inhibition; +: weak; ++: moderate; +++: strong inhibition; settings: IL-2 (10 unit/mL) and three alarmins (10 ng/ml), 5 days
# From the text: While alarmins are known to work in concert to enhance ILC2 and Th2 cell functions such as increase in cell population, steroids such as Dexamethasone (Dex) can negate these effects, resulting in the mitigation of type 2 immune responses [Jia, Yi et al. American Journal Of Respiratory Cell And Molecular Biology, vol. 55, 5 (2016): 675-683]. ILC2 and Th2 cell population can be determined by flow cytometry (BD FACSVerse) following standard procedures known to those skilled in the art.
substance,measurement,setting,value
"SM17: humanized anti-IL17RB monoclonal antibody, human IgG4 isotype; HC SEQ ID NO: 32, LC SEQ ID NO: 33",binding of SM17 to RhIL17RB-HEK293,[1],39%
same,"OD 450 nm Absorption, murine IL17RB",murine IL17RB; SM17 0.0032 μg/mL,0.12 and 0.19
same,"OD 450 nm Absorption, murine IL17RB",murine IL17RB; SM17 0.016 μg/mL,0.31
same,"OD 450 nm Absorption, murine IL17RB",murine IL17RB; SM17 0.08 μg/mL,0.78
same,"OD 450 nm Absorption, murine IL17RB",murine IL17RB; SM17 0.4 μg/mL,1.68 and 1.61
same,"OD 450 nm Absorption, murine IL17RB",murine IL17RB; SM17 2 μg/mL,2.46 and 2.44
same,"OD 450 nm Absorption, murine IL17RB",murine IL17RB; SM17 10 μg/mL,2.67 and 2.61
same,"Cell proliferation inhibition, Th2",[2],+++
